In patent US20040014151A1 (published 2004):

Molecular target: the molecule itself
Assay: SEC-HPLC of IMAC-purified protein from cpcE or cpcF mutant
Procedure: Size Exclusion Chromatography-High Performance Liquid Chromatography—Although IMAC-purified and dialyzed samples (see above) could be used with no obvious effect on the results, proteins to be analyzed by SEC-HPLC were generally dialyzed again in 50 mM Na—PO₄ pH 7.0, 50 mM NaCl, 0.5 mM DTT. […] A mobile phase of 50 mM Na—PO₄ pH 7.0 was flowed at 0.8 ml min⁻¹ through Bio-Sil 250 (Bio-Rad Laboratories, Hercules, Calif.) guard column (80×7.8 mm) and column (300×7.8 mm) maintained at 25° C. For analytical separations, 50 to 200 μg of phycocyanin was loaded [based on absorbance at the peak near 621 nm and using a molar extinction coefficient of 290,000 M⁻¹ cm⁻¹ per monomer (29)]. Molecular size calibration utilized bovine gamma globulin, 158 kDa; chicken ovalbumin, 44 kDa; horse myoglobin, 17 kDa; vitamin B12, 1.35 kDa (Bio-Rad gel filtration standards). The void volume was determined with blue dextran, 2000 kDa (Pharmacia Biotech, Piscataway, N.J.). Preparative separations were performed with loads of 0.5 to 1 mg phycocyanin.

B1: His-tagged C-phycocyanin β subunit, holo-HTβ (other, Anabaena sp. PCC7120, UniProt P07120 1-173, looked up)
chain: MTLDVFTKVVSQADSRGEFLSNEQLDALANVVKEGNKRLDVVNRITSNASAIVTNAARALFEEQPQLIAPGGNAYTNRRMAACLRDMEIILRYVTYAILAGDASVLDDRCLNGLRETYQALGTPGSSVAVGVQKMKDAAVGIANDPNGITKGDCSQLISEVASYFDRAAAAVG
modifications: two phycocyanobilins (PCB); methylated Asn72
notes: Encoded by pBS262, expressed in Anabaena sp; also called An262; not shown: 24-residue N-terminal extension with 6xHis tag and TEV protease site
binding result: binds
